Measured values from publication PMC9379584 (iScience, 2022).
Each block holds one molecule with its values, some of them ahead of it.

What was measured:
[1] = target: IL6-HiBiT-D2R-HaloTag (human dopamine D2 receptor) (human) (UniProt P14416); experiment: FRET or BRET
[2] = target: IL6-HiBiT-α2A-AR-HaloTag (rat α2A-adrenergic receptor) (rat) (UniProt P22909); experiment: FRET or BRET
[3] = test system: mouse pancreatic islets; experiment: Glucose-stimulated insulin secretion; type: cell-based; details: read-out: IC50, inhibition of GSIS; wildtype mouse islets, 20 mM glucose, 90 min
[4] = test system: INS-1E cells; experiment: Glucose-stimulated insulin secretion; type: cell-based, rat; details: read-out: IC50, inhibition of GSIS; INS-1E, 20 mM glucose, 90 min
[5] = target: IL6-HiBiT-D2R-HaloTag (human dopamine D2 receptor) (human, UniProt P14416 1-443, HaloTag NanoBRET 618 ligand bound to the HaloTag); experiment: FRET or BRET
Chain of IL6-HiBiT-D2R-HaloTag (human dopamine D2 receptor) (P14416 whole entry): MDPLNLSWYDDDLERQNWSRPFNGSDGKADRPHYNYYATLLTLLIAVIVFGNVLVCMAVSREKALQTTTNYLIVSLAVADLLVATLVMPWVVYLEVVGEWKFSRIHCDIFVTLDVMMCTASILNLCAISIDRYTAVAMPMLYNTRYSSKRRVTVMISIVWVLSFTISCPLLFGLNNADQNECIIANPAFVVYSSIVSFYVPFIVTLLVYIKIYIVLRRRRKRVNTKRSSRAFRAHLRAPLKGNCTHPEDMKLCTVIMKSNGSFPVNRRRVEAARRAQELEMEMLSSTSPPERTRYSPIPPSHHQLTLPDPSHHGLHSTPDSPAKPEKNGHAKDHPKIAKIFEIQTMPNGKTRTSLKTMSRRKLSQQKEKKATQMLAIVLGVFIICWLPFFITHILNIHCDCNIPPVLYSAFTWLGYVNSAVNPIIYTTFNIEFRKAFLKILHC

Chain of IL6-HiBiT-D2R-HaloTag (human dopamine D2 receptor) (human) (P14416 whole entry): as above

EC50 of the agonist DA for recruitment [1]: 2.88 nM
EC50 of the agonist NE for recruitment [1]: 25.3 nM
EC50 of the agonist bromocriptine for recruitment [1]: 21.6 nM
Emax of recruitment with bromocriptine (% of the DA response) (% of DA response) [1]: 89.3
Molecule: NanoLuc-Gαi2(91) (from UniProt P04899 1-355) (natural protein; other documents disagree on this pair)

EC50 of the agonist NE for recruitment [1]: 0.07 nM
EC50 of the agonist bromocriptine for recruitment [1]: 4.3 nM
Emax of recruitment with bromocriptine (% of the DA response) (% of DA response) [1]: 66.5
Molecule: NanoLuc-Gαz(91) (from UniProt P19086 1-355) (natural protein; other documents disagree on this pair)

Emax of recruitment with bromocriptine (% of the NE response) (% of NE response) [2]: 43
Molecule: NanoLuc-GαoA(91) (from UniProt P09471 1-354) (natural protein)

EC50 of the agonist NE for recruitment [1]: 4900 nM
EC50 of the agonist bromocriptine for recruitment [1]: 104 nM
Emax of recruitment with bromocriptine (% of the DA response) (% of DA response) [1]: 60
Molecule: NanoLuc-Gαi1(91) (from UniProt P63096 1-354) (natural protein; other documents disagree on this pair)

Emax of recruitment with bromocriptine (% of the NE response) (% of NE response) [2]: 43.8
Molecule: NanoLuc-Gαi2(91) (from UniProt P04899 1-355) (natural protein)

The next lines start with the molecule.

Molecule: NanoLuc-Gαz(91) (from UniProt P19086 1-355) (natural protein)
Emax of recruitment with bromocriptine (% of the NE response) (% of NE response) [2]: 21.2

Molecule: NanoLuc-GαoA(91) (from UniProt P09471 1-354) (natural protein; other documents disagree on this pair)
Emax of recruitment with bromocriptine (% of the DA response) (% of DA response) [1]: 109

Molecule: NanoLuc-Gαi3(91) (from UniProt P08754 1-354) (natural protein; other documents disagree on this pair)
EC50 of the agonist NE for recruitment [1]: 32600 nM
EC50 of the agonist bromocriptine for recruitment [1]: 84.3 nM
Emax of recruitment with bromocriptine (% of the DA response) (% of DA response) [1]: 64.2

Molecule: NanoLuc-Gαi1(91) (from UniProt P63096 1-354) (natural protein)
Emax of recruitment with bromocriptine (% of the NE response) (% of NE response) [2]: 15.4

Molecule: Clc1cccc(Cl)c1N=C1NCCN1 [Clonidine, clonidine]
IC50 [3]: 7.36 nM
IC50 [4]: 9.06 nM

Molecule: NanoLuc-Gαi3(91) (from UniProt P08754 1-354) (natural protein)
Emax of recruitment with bromocriptine (% of the NE response) (% of NE response) [2]: 12.7

B1: NanoLuc-GαoB(91) (natural protein)
chain: MGCTLSAEERAALERSKAIEKNLKEDGISAAKDVKLLLLGAGESGKSTIVKQMKIIHEDGFSGEDVKQYKPVVYSNTIQSLAAIVRAMDTLGIEYGDKERKADAKMVCDVVSRMEDTEPFSAELLSAMMRLWGDSGIQECFNRSREYQLNDSAKYYLDSLDRIGAADYQPTEQDILRTRVKTTGIVETHFTFKNLHFRLFDVGGQRSERKKWIHCFEDVTAIIFCVALSGYDQVLHEDETTNRMHESLKLFDSICNNKWFTDTSIILFLNKKDIFEEKIKKSPLTICFPEYTGPSAFTEAVAYIQAQYESKNKSAHKEIYTHVTCATDTNNIQFVFDAVTDVIIAKNLRGCGLY
EC50 of the agonist DA for recruitment [5]: 22.4 nM
EC50 of the agonist NE for recruitment [5]: 139 nM
EC50 of the agonist bromocriptine for recruitment [5]: 0.27 nM
